Measurements from patent publication US10544215B2, “1-(Chloromethyl)-2,3-dihydro-1H-benzo[e]indole dimer antibody-drug conjugate compounds, and methods of use and treatment” (priority 2013, dated 2020).

B1: ADC 125: Thio Hu Anti-CD33 15G15.33 HC A118C-MC-MMED-(CBI dimer phos); linker-CBI intermediate 57 (conjugate)
VH: QVQLVQSGAEVKKPGSSVKVSCKASGGIFSNHAISWVRQAPGQGLEWMGGIIPIFGTANYAQKFQGRVTITADESTSTAFMELSSLRSEDTAVYYCAREWADVFDIWGQGTMVTVSS
VL: EIVLTQSPLSLPVTPGEPASISCRSSQSLLHSNGYNYLDWYLQKPGQSPQLLIYLGVNSVSGVPDRFSGSGSGTDFTLKISRVEAEDVGVYYCMQALQTPWTFGQGTKVEIK
B2: ADC 127: Thio Hu Anti-CD33 15G15.33 HC A118C-MC-ED-(CBI dimer DVB diphos); linker-CBI intermediate 66 (conjugate)
VH: B1 VH
VL: B1 VL
B3: ADC 129: Thio Hu Anti-CD33 15G15.33 HC A118C-MC-ED-(CBI dimer DVB phos); linker-CBI intermediate 68 (conjugate)
VH: B1 VH
VL: B1 VL

Test system: EOL-1
Experiment: EOL-1 in vitro cell viability (CellTiter-Glo cell proliferation assay)
Type: cell-based, human
Conditions: at 3 days versus ADC concentrations (μg/ml)
From the text: The CellTiter-Glo® Luminescent Cell Viability Assay is a commercially available (Promega Corp., Madison, Wis.), homogeneous assay method based on the recombinant expression of Coleoptera luciferase (U.S. Pat. Nos. 5,583,024; 5,674,713; 5,700,670). This cell proliferation assay determines the number of viable cells in culture based on quantitation of the ATP present, an indicator of metabolically active cells (Crouch et al (1993) J. Immunol. Meth. 160:81-88; U.S. Pat. No. 6,602,677). The CellTiter-Glo® Assay was conducted in 96 well format, making it amenable to automated high-throughput screening (HTS) (Cree et al (1995) AntiCancer Drugs 6:398-404). The homogeneous assay procedure involves adding the single reagent (CellTiter-Glo® Reagent) directly to cells cultured in serum-supplemented medium. Cell washing, removal of medium and multiple pipetting steps are not required. The system detects as few as 15 cells/well in a 384-well format in 10 minutes after adding reagent and mixing. The cells may be treated continuously with ADC, or they may be treated and separated from ADC.
The homogeneous “add-mix-measure” format results in cell lysis and generation of a luminescent signal proportional to the amount of ATP present. The amount of ATP is directly proportional to the number of cells present in culture. […] Viable cells are reflected in relative luminescence units (RLU). […]
Efficacy of ADC was measured by a cell proliferation assay employing the following protocol ([…] GLO™ Luminescent Cell Viability Assay, Promega Corp. Technical Bulletin TB288; Mendoza et al (2002) Cancer Res. 62:5485-5488): • 1. […] The plate was incubated at room temperature for 10 minutes to stabilize the luminescence signal. • 8. Luminescence was recorded and reported in graphs as RLU=relative luminescence units. • Data are plotted as the mean of luminescence for each set of replicates, with standard deviation error bars. […]

Molecule | cell-killing activity (EOL-1 in vitro cell viability)
B1 | modest dose response cell-killing activity
B2 | potent, dose responsive cell-killing activity
B3 | potent, dose responsive cell-killing activity
